The record followed here is patent publication US20230212587A1, “Mutant Hydroxyphenylpyruvate Dioxygenase Polypeptide, Encoding Gene Thereof and Use Therefor” (Beijing Dabeinong Biotechnology Co., Ltd., priority 2019, published 2023).

The experiment relates to Arabidopsis thaliana T1 plants. Kind of experiment: Topramezone tolerance of transgenic Arabidopsis thaliana T1 plants (pesticide damage grade by bleached leaf area, score, resistance evaluation). In kind it is in vivo. Particulars: HPPD F372G mutants, Table 6. A digest of the protocol: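 Herbicide tolerance was judged per plant on a bleaching scale (grade 0 no bleaching to grade 3 fully bleached) 7 DAT. Topramezone doses were 0, 25, 50 and 100 g ai/ha on 18-day-old T1 and wild-type plants.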

B1: CsHPPDm-F372G: Cucumis sativus HPPD mutant F372G, SEQ ID NO: 327 (protein)
chain: MGKEADFPRAPSEATDGGATASQSEFELQGFDNFIRTNPKSDRFKVKRFHHIEFWCTDATNVARRFSWGLGMQIVAKSDLSTGNMTHASYLLRSGHLCFLFTAPYSPSIAAAQNLTPASTASIPSFDHSVCRSFSGTHGFGARAIALEVEDAEIAFRTSVAHGAKPSCPPIVLENRAVLSEVHLYGDVVLRYISYKNPVSGDNGENKPDEWFLPKFEAMEETASFPLDFGIRRLDHAVGNVPELGPAVSYLKGFTGFHEFAEFTAEDVGTSESGLNSMVLANNEEMVLLPINEPVFGTKRKSQIQTYLEHNEGAGVQHLALMSEDIFRTLREMRKRSSVGGFEFMPSPPPTYYKNLKSRAGDVLTDEQIKECEELGILVDKDDQGTLLQIGTKPVGDRPTIFIEIIQRLGCMMKDEEGKAFQKGGCGGFGKGNFSELFKSIEEYEKTLEAKRVSE
modifications: CsHPPDm-F372G Amino Acid Sequence
For the molecule B1, the Resistance evaluation entry was “Poorly resistant” (topramezone 25 g ai/ha (1x)) and “Non-resistant” (topramezone 100 g ai/ha (4x)).

B2: AhHPPDm-F372G: Arachis hypogaea HPPD mutant F372G, SEQ ID NO: 333 (protein)
chain: MATAYTYAHAVTYCNSQHNPPIIPILSTNQHPPRVTLPSSIPHFISTITTFNLKHFPSHSLHTVMVTQTQQNAPSSSPELGFKLVGFKNFVRTNPKSDRFKVIRFHHVEFWCTDATNTASRFSWGLGMPIVAKSDLSTGNAVHASYLLRSGDLNFLFSAPYSASIAGDGASASFPSFSASDCHSFAAKHGLAVRAVAIEVEDASAAFSASVANGAKPVSPAVLLDNSVGFAEVHLYGDVVLRYISYSAPTRESNLNPTLRFLPGFEAVEADSSFPELDYGIRRLDHAVGNVPELAPAVNYLKKFTGFHEFAEFTAEDVGTSESGLNSVVLASNDEMVLLPLNEPVYGTKRKSQIETYLEHNEGAGLQHLALVSEDIFRTLREMRKRSTIGGFQFMPSPPPTYYRNLKKRAGDVLSDEQIKECEELGILVDRDDQGTLLQIGTKPVGDRPTIFIEIIQRIGCMLKDEEGKVYQKGGCGGFGKGNFSELFKSIEEYEKTLESRRTA
modifications: AhHPPDm-F372G Amino Acid Sequence
For the molecule B2, the Resistance evaluation result is reported as “Poorly resistant” (topramezone 25 g ai/ha (1x)) and “Non-resistant” (topramezone 100 g ai/ha (4x)).

B3: MsHPPDm-F372G: Medicago sativa HPPD mutant F372G, SEQ ID NO: 321 (protein)
chain: MAIETETQTQTGFKLVGFKNFVRANPKSDRFKVKRFHHVEFWCTDATNTARRFSHGLGMPIVAKSDLSTGNQTHASYLLRSGDLNFLFSAAYSPSISLSSPSSTAAIPTFSASNCFSFSASHGLAVRAVAVEVEDAELAFTTSVNNGAIPSSPPVILENHVKLAEVRLYGDVVLRYVSYNDPNPNQNPNLLFLPGFERVSDESSNSSLDFGIRRLDHAVGNVPELSSAVKYVKDFTGFHEFAEFTAEDVGTSESGLNSVVLANNEETVLLPMNEPVYGTKRKSQIETYLEHNEGAGLQHLALKSEDIFRTLREMRKRSGVGGFEFMPSPPVTYYRNLKNRVGDVLSDEQIKECEELGILVDRDDQGTLLQIGTKPIGDRPTIFIEIIQRVGCMLKDEEGKEYQKGGCGGFGKGNFSELFKSIEEYEKTLETRRTA
modifications: MsHPPDm-F372G Amino Acid Sequence
For the molecule B3, the Resistance evaluation entry (topramezone 25 g ai/ha (1x)) is “Moderately resistant” and the Resistance evaluation result (topramezone 100 g ai/ha (4x)) is “Non-resistant”.

B4: BvHPPDm-F372G: Beta vulgaris HPPD mutant F372G, SEQ ID NO: 323 (protein)
chain: MGTLSPQPQTSPSQFKLVGYSNFIRVNPLSDLFPVKRFHHVEFWCGDATNVSRRFSWGLGMPIVAKSDLSTGNSVHASYLLRSGELHFLFTSPYSPSLSSPSSATIPTFSFSLFTSFLTSHGLAVRAVAVEVQDAEAAFHISVSNGASPVSPPIRLHDGVVLSEVHLYGDVVLRYVSTSSVVDGIFLPGFEEMLGESSFQELDFGLRRLDHAVGNVPELAPAIEYVKKFTGFHEFAEFTTEDVGTSESGLNSAVVANNDETVLFPMNEPVYGTKRKSQIQTYLEHNEGAGVQHLALMSEDIFWTLREMRKRSGLGGFEFMPSPPPTYYRNLRNRAADVLSEEQMKECEELGILVDKDDQGTLLQIGTKPIGDRPTMFIEIIQRIGCMMKDEEGKVYQKGGCGGFGKGNFSELFKSIEEYEKTLERKPIADTNAT
modifications: BvHPPDm-F372G Amino Acid Sequence
For B4, the Resistance evaluation result by setting is: (topramezone 25 g ai/ha (1x)) “Moderately resistant”; (topramezone 100 g ai/ha (4x)) “Non-resistant”.

B5: HaHPPDm-F372G: Helianthus annuus HPPD mutant F372G, SEQ ID NO: 319 (protein)
chain: MGTEATVAAVVAGDESDHPTSAFKLVGFKNFIRTNPMSDKFTVKNFHHIEFWCSDATNTARRFSWGLGMPIIFKSDLSTGNSTHASYLLRSGHLNFLFTAPYSPSISPTTTTASIPTFSHSASRHFTATHGLAVRAIAVEVEDAETAFAVSVANGAKPSSPPVTLGHNDVVLSEVKLYGDVVLRYVSYKNNTNNNNNNDNDNYIFLPGFEAMDKTSSFQELDYGIRRLDHAVGNVPELAPAVDYVKSFTGFHEFAEFTAEDVGTSESGLNSVVLACNSEMVLIPMNEPVYGTKRKSQIQTYLEHNEGAGVQHLALASEDIFRTLREMRKRSGVGGFEFMPSPPPTYYRNLKSRAGDVLSDEQIKECEELGILVDRDDQGTLLQIGTKPVGDRPTIFIEIIQRVGCMVKDDEGKVQQKAGCGGFGKGNFSELFKSIEEYEKTLEARSTTAA
modifications: HaHPPDm-F372G Amino Acid Sequence
Turning to B5, the Resistance evaluation entry is “Poorly resistant” (topramezone 25 g ai/ha (1x)) and “Non-resistant” (topramezone 100 g ai/ha (4x)).

B6: StHPPDm-F372G: Solanum tuberosum HPPD mutant F372G, SEQ ID NO: 329 (protein)
chain: MGKQAATATATATATADDQQLPADIEDKYKLVGFNNFVRTNPRSDLFNVKRFHHIEFWCGDATNTARRFSWGLGLPIAAKSDLSTGNSVHASYLLRSSSSQLQFLFTAPYSPAISTPSSSSIPTFSVSSHRSFTETHGLGVRAIALEVENSRLAFSTCVSHGAKPVSEPVILNDEVVISEVHLYGDVVLRFVSFLKDSNRFVFLPGFELVEGAQLDYGIRRLDHAVGNVPQLGPVVEYIKSFTGFHEFAEFTAEDVGTAESGLNSVVLANNDETVLFPLNEPVYGTKRKSQIQTYLEHNEGAGVQHLALVTEDIFRTLREMRKRSGIGGFEFMPSPPPTYYKNLKSRAGDILSDEQIKECEELGILVDRDDQGTLLQIGTKPVGDRPTIFLEIIQRIGCMLQNAEGELYQKGGCGGFGKGNFSELFKSIEEYEKTLEAKQNTQVAIA
modifications: StHPPDm-F372G Amino Acid Sequence
As for B6, the Resistance evaluation result is given as “Poorly resistant” (topramezone 25 g ai/ha (1x)) and “Non-resistant” (topramezone 100 g ai/ha (4x)).

B7: BnHPPDm-F372G: Brassica napus HPPD mutant F372G, SEQ ID NO: 317 (protein)
chain: MGHENAAVCETQQHDDAASPGFKLVGFSKFVRKNPKSDKFKVKRFHHIEFWCGDATNVSRRFSWGLGMRFSAKSDLSTGNMVHASYLLTSGDLRFLFTAPYSPSLSAGEAQPSATASIPSFDHASCRSFFSSHGLGVRAVAIEVEDAESAFSISVANGAVPSSPPNVLNGAVTIAEVKLYGDVVLRYVSYYNGTVSFLPGFESVDDTSSFPLDYGIRRLDHAVGNVPELGPALTYLAGFTGFHQFAEFTADDVGTAESGLNSAVLANNDEMVLLPINEPVHGTKRKSQIQTFLEHNEGAGLQHLALMSEDIFRTLREMRKRSGVGGFDFMPSPPPTYYKNLKKRVGDVLSEEQIEECEELGILVDRDDQGTLLQIGTKPLGDRPTIFIEIIQRVGCMKRDEEGKVYQSGGCGGFGKGNFSELFKSIEEYEKTLEAKQLVG
modifications: BnHPPDm-F372G Amino Acid Sequence
Consider B7, for which the Resistance evaluation entry is “Poorly resistant” (topramezone 25 g ai/ha (1x)) and “Non-resistant” (topramezone 100 g ai/ha (4x)).

B8: NtHPPDm-F372G: Nicotiana tabacum HPPD mutant F372G, SEQ ID NO: 325 (protein)
chain: MGKLETVTTTSAAAADDSSELTTNFKLVGFKNFIRTNPRSDFFSVKSFHHIEFWCGDATNTARRFSWSLGMPIAAKSDLSTGNSVHASYLLRPVSGSLQFLFTAPYSPSISTPSSAAIPSFSTSTHRSFTTTHGLGVRAVALEVENAYTAFSASVSRGAKPMFEPVTIDEQVAMAEVHLYGDVVLRFVSYLKDADNLVFLPGFEAMDETASYKELDYGIRRLDHAVGNVPELGPVVDYIKRFTGFHEFAEFTAEDVGTAESGLNSMVLANNDETVLLPLNEPVYGTKRKSQIQTYLEHNEGAGVQHLALVTEDIFKTLTEMRKRSGVGGFEFMPSPPPTYYKNLKNRAGDVLSDEQILACEELGILVDRDDQGTLLQIGTKPVGDRPTIFIEIIQRIGCMLKDGKGQVYQKGGCGGFGKGNFSELFRSIEEYEKTLEAKQANQVAAA
modifications: NtHPPDm-F372G Amino Acid Sequence
Turning to B8, the Resistance evaluation entry reads like this: (topramezone 25 g ai/ha (1x)) “Poorly resistant”; (topramezone 100 g ai/ha (4x)) “Non-resistant”.

B9: S1HPPDm-F372G: Solanum lycopersicum HPPD mutant F372G, SEQ ID NO: 331 (protein)
chain: MGKQAAAAADDQQLPGDIEDKFKLVGFNHFVRTNPRSDFFTVKRFHHIEFWCGDATNTARRFSWGLGLPIAAISDLSTGNSVHASYLLRSSSSSQLQFLFTAPYSSAISTSSSASIPTFSVSSHRSFTATHGLGVRAIALEVENSRLAFSTCVAHGAKPVSEPVILNDEVVIAEVHLYGDVVLRFVSFLKDSNCFVFLPGFESVEGAQLDYGIRRLDHAVGNVPELGPVVEYIKSFTGFHEFAEFTAEDVGTAESGLNSVVLANNDETVLFPLNEPVYGTKRKSQIQTYLEHNEGAGVQHLALVTEDIFRTLREMRKRSGIGGFEFMPSPPPTYYKNLKTRAGDILSDEQIQECEELGILVDRDDQGTLLQIGTKPVGDRPTIFLEIIQRIGCMLKNEEGELYQKGGCGGFGKGNFSELFKSIEEYEKTLEAKQNTQVAIA
modifications: SlHPPDm-F372G Amino Acid Sequence
As to B9, the Resistance evaluation entry is on record as “Poorly resistant” (topramezone 25 g ai/ha (1x)) and “Non-resistant” (topramezone 100 g ai/ha (4x)).
